Measurements reported in patent US20140037641A1.

Target: MAb E2-9
Assay: inhibition ELISA: soluble Fba peptide against plate-coated Fba-MAP for MAb E2-9

## YGKDVKDLFDYAQE [Fba peptide (…), synthetic 14 mer from Candida albicans fructose-bisphosphate aldolase]
  IC50: 10 µg/mL
